biological target: plasma purified human AT-III (antithrombin III) in complex with unfractionated heparin (human) (UniProt P01008); assay: residual FIXa activity on Mesyl-D-CHG-Gly-Arg-AMC after timed incubation with AT-III/UFH (0-500 nM AT-III, 1 uM UFH); kapp from K0.5

Substance | kapp (apparent second-order rate constant for inhibition)
FIXa-N260S/R318Y/R338E/R403E/E410N (from UniProt P00740 47-191; P00740 227-461) (enzyme) | 4400 M⁻¹ s⁻¹
FIXa-R318Y/R338E/Y345A/R403E/E410N (from UniProt P00740 47-191; P00740 227-461) (enzyme) | 7900 M⁻¹ s⁻¹
FIXa-R318Y/R338E/R403E/E410N/T412V (from UniProt P00740 47-191; P00740 227-461) (enzyme) | 2900 M⁻¹ s⁻¹
FIXa-K247N/N249S/R318Y/R403E/E410N (from UniProt P00740 47-191; P00740 227-461) (enzyme) | 2700 M⁻¹ s⁻¹
FIXa-T343R/N346D (from UniProt P00740 47-191; P00740 227-461) (enzyme) | 1.3e+06 M⁻¹ s⁻¹
FIXa-K247N/N249S/N260S/R318Y/R338E/R403E/E410N (from UniProt P00740 47-191; P00740 227-461) (enzyme) | 1300 M⁻¹ s⁻¹
FIXa-R318Y/R338E/E410S (from UniProt P00740 47-191; P00740 227-461) (enzyme) | 720000 M⁻¹ s⁻¹
FIXa-R318Y/R338E/N346Y/R403E/E410N (from UniProt P00740 47-191; P00740 227-461) (enzyme) | 2800 M⁻¹ s⁻¹
FIXa-Y155F/R318Y/R338E/N346D/R403E/E410N (from UniProt P00740 47-191; P00740 227-461) (enzyme) | 1600 M⁻¹ s⁻¹
FIXa-Y155F/K247N/N249S/R318Y/R338E/R403E (from UniProt P00740 47-191; P00740 227-461) (enzyme) | 810 M⁻¹ s⁻¹
FIXa-R318Y/R338E/T412A (from UniProt P00740 47-191; P00740 227-461) (enzyme) | 350000 M⁻¹ s⁻¹
FIXa-Y155F/K228N/K247N/N249S/R318Y/R338E/R403E/E410N (from UniProt P00740 47-191; P00740 227-461) (enzyme) | 1100 M⁻¹ s⁻¹
FIXa-Y155F/K247N/N249S/R338E/R403E/E410N (from UniProt P00740 47-191; P00740 227-461) (enzyme) | 42000 M⁻¹ s⁻¹
FIXa-K228N/K247N/N249S/R318Y/R338E/R403E/E410N (from UniProt P00740 47-191; P00740 227-461) (enzyme) | 1100 M⁻¹ s⁻¹
FIXa-Y155F/K247N/N249S/N260S/R318Y/R338E/R403E/E410N (from UniProt P00740 47-191; P00740 227-461) (enzyme) | 430 M⁻¹ s⁻¹
FIXa-T343R/N346Y (from UniProt P00740 47-191; P00740 227-461) (enzyme) | 4.2e+06 M⁻¹ s⁻¹
FIXa-K247N/N249S/R318Y/R338E/R403E (from UniProt P00740 47-191; P00740 227-461) (enzyme) | 310 M⁻¹ s⁻¹
FIXa-D104N/K106S/K228N/K247N/N249S/R318Y/R338E/R403E/E410N (from UniProt P00740 47-191; P00740 227-461) (enzyme) | 680 M⁻¹ s⁻¹
FIXa-R318Y/R338E/R403E/T412A (from UniProt P00740 47-191; P00740 227-461) (enzyme) | 1600 M⁻¹ s⁻¹
FIXa-R318Y/R338E/T343R/N346Y/R403E/E410N (from UniProt P00740 47-191; P00740 227-461) (enzyme) | 11000 M⁻¹ s⁻¹
FIXa-Y155F/N260S/R318Y/R338E/R403E/E410N (from UniProt P00740 47-191; P00740 227-461) (enzyme) | 2100 M⁻¹ s⁻¹
FIXa-R318Y/R338E/R403E/E410N/T412A (from UniProt P00740 47-191; P00740 227-461) (enzyme) | 3800 M⁻¹ s⁻¹
FIXa-R318Y/R338E/T343R/N346D/R403E/E410N (from UniProt P00740 47-191; P00740 227-461) (enzyme) | 5100 M⁻¹ s⁻¹

biological target: Antithrombin III (plasma purified human AT-III), in complex with unfractionated full-length heparin (human) (UniProt P01008); assay: inhibition of FIXa by AT-III/UFH, residual activity on Mesyl-D-CHG-Gly-Arg-AMC

Substance | kapp (second-order rate constant for inhibition)
FIXa D203N/F205T/K228N (from UniProt P00740 47-191; P00740 227-461) (enzyme) | 1.1e+06 M⁻¹ s⁻¹
BeneFIX Coagulation FIX (T148A), activated (FIXa) (from UniProt P00740 47-191; P00740 227-461) (enzyme) | 1.6e+07 M⁻¹ s⁻¹
FIXa R403E (from UniProt P00740 47-191; P00740 227-461) (enzyme) | 110000 M⁻¹ s⁻¹
FIXa R318A/R403A (from UniProt P00740 47-191; P00740 227-461) (enzyme) | 17000 M⁻¹ s⁻¹
FIXa R318A (from UniProt P00740 47-191; P00740 227-461) (enzyme) | 690000 M⁻¹ s⁻¹
FIXa K293E/R338E/R403E (from UniProt P00740 47-191; P00740 227-461) (enzyme) | 31000 M⁻¹ s⁻¹
FIXa R338E (from UniProt P00740 47-191; P00740 227-461) (enzyme) | 270000 M⁻¹ s⁻¹
FIXa R338E/R403E (from UniProt P00740 47-191; P00740 227-461) (enzyme) | 68000 M⁻¹ s⁻¹
FIXa K228N/R318Y (from UniProt P00740 47-191; P00740 227-461) (enzyme) | 1.2e+06 M⁻¹ s⁻¹
FIXa R338E/E410N (from UniProt P00740 47-191; P00740 227-461) (enzyme) | 6.3e+06 M⁻¹ s⁻¹
FIXa D203N/F205T/R338A (from UniProt P00740 47-191; P00740 227-461) (enzyme) | 860000 M⁻¹ s⁻¹
FIXa K293A/R403A (from UniProt P00740 47-191; P00740 227-461) (enzyme) | 81000 M⁻¹ s⁻¹
FIXa R403A (from UniProt P00740 47-191; P00740 227-461) (enzyme) | 1.4e+06 M⁻¹ s⁻¹
FIXa R403E/E410N (from UniProt P00740 47-191; P00740 227-461) (enzyme) | 4.8e+06 M⁻¹ s⁻¹
FIXa N260S (from UniProt P00740 47-191; P00740 227-461) (enzyme) | 1.1e+06 M⁻¹ s⁻¹
FIXa K228N/R338E/R403E (from UniProt P00740 47-191; P00740 227-461) (enzyme) | 42000 M⁻¹ s⁻¹
FIXa R318E (from UniProt P00740 47-191; P00740 227-461) (enzyme) | 16000 M⁻¹ s⁻¹
FIXa R318Y (from UniProt P00740 47-191; P00740 227-461) (enzyme) | 640000 M⁻¹ s⁻¹
FIXa R338A/R403A (from UniProt P00740 47-191; P00740 227-461) (enzyme) | 840000 M⁻¹ s⁻¹

Substance | kapp (second-order rate constant for inhibition)
FIXa K293E (from UniProt P00740 47-191; P00740 227-461) (enzyme) | 1.2e+06 M⁻¹ s⁻¹
FIXa D203N/F205T/R338E (from UniProt P00740 47-191; P00740 227-461) (enzyme) | 360000 M⁻¹ s⁻¹
FIXa R318Y/R338E/R403E (from UniProt P00740 47-191; P00740 227-461) (enzyme) | 1200 M⁻¹ s⁻¹
FIXa D85N/D203N/F205T (from UniProt P00740 47-191; P00740 227-461) (enzyme) | 2.7e+06 M⁻¹ s⁻¹
FIXa R318Y/E410N (from UniProt P00740 47-191; P00740 227-461) (enzyme) | 1.1e+06 M⁻¹ s⁻¹
FIXa Y155F/R318Y/R338E/R403E (from UniProt P00740 47-191; P00740 227-461) (enzyme) | 1000 M⁻¹ s⁻¹
FIXa R312Y (from UniProt P00740 47-191; P00740 227-461) (enzyme) | 230000 M⁻¹ s⁻¹
Catalyst Biosciences WT FIXa (from UniProt P00740 47-191; P00740 227-461) (enzyme) | 2.4e+07 M⁻¹ s⁻¹
FIXa D203N/F205T/E410N (from UniProt P00740 47-191; P00740 227-461) (enzyme) | 2e+06 M⁻¹ s⁻¹
FIXa D203N/F205T/R338E/R403E (from UniProt P00740 47-191; P00740 227-461) (enzyme) | 2000 M⁻¹ s⁻¹
FIXa D104N/K106S/N260S (from UniProt P00740 47-191; P00740 227-461) (enzyme) | 7e+06 M⁻¹ s⁻¹
FIXa Y155F/R338E/R403E/E410N (from UniProt P00740 47-191; P00740 227-461) (enzyme) | 32000 M⁻¹ s⁻¹
FIXa D203N/F205T (from UniProt P00740 47-191; P00740 227-461) (enzyme) | 810000 M⁻¹ s⁻¹
FIXa D203N/F205T/R318Y (from UniProt P00740 47-191; P00740 227-461) (enzyme) | 61000 M⁻¹ s⁻¹
FIXa K293A/R338A/R403A (from UniProt P00740 47-191; P00740 227-461) (enzyme) | 47000 M⁻¹ s⁻¹
FIXa R318Y/R338E/E410N (from UniProt P00740 47-191; P00740 227-461) (enzyme) | 280000 M⁻¹ s⁻¹
FIXa D104N/K106S/R318Y/R338E/E410N (from UniProt P00740 47-191; P00740 227-461) (enzyme) | 210000 M⁻¹ s⁻¹
FIXa R338E/R403E/E410N (from UniProt P00740 47-191; P00740 227-461) (enzyme) | 130000 M⁻¹ s⁻¹
FIXa T148A (from UniProt P00740 47-191; P00740 227-461) (enzyme) | 1.6e+07 M⁻¹ s⁻¹
